Measured values: the supplement of paper PMC10724198
± gives the standard deviation of the averaged measurements.

Tests used:
Saccharomyces cerevisiae [1] = experiment: protein stability index of tFT-peptide fusion (C-terminal peptide) (PSI (0-1 scale)); higher = more stable (slower turnover); settings: genetic background: wild type; temperature: 30 C
Saccharomyces cerevisiae [2] = experiment: as above
Method: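 MPS profiling in S. cerevisiae of the tFT-X12 degron library: putative degron peptides plus stable controls, 12 aa, fused to the C-terminus of a sfGFP-mCherry timer. Cells are FACS-sorted into 8 mCherry/sfGFP bins and deep-sequenced. PSI runs from 0 (unstable) to 1 (stable). Backgrounds are wild type, das1Δ and doa10Δ at 30 °C, and wild type, das1Δ, cdc34-1 and cdc53-1 at 37 °C; 2-3 technical replicates each.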

[3] = genetic background: cdc34-1, temperature: 37 C
[4] = genetic background: cdc53-1, temperature: 37 C
[5] = genetic background: das1 deletion, temperature: 30 C
[6] = genetic background: das1 deletion, temperature: 37 C
[7] = genetic background: doa10 deletion, temperature: 30 C
[8] = genetic background: wild type, temperature: 30 C
[9] = genetic background: wild type, temperature: 37 C
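Note: PSI is a weighted mean of sequencing reads over stability bins, variants kept only with over 10 reads, mCherry proximal and sfGFP distal, peptide attached via GGGS linker.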

| Sequence | protein stability index (Saccharomyces cerevisiae [1]) | protein stability index (Saccharomyces cerevisiae [2]; [3]) | protein stability index (Saccharomyces cerevisiae [2]; [4]) | protein stability index (Saccharomyces cerevisiae [2]; [5]) | protein stability index (Saccharomyces cerevisiae [2]; [6]) | protein stability index (Saccharomyces cerevisiae [2]; [7]) | protein stability index (Saccharomyces cerevisiae [2]; [8]) | protein stability index (Saccharomyces cerevisiae [2]; [9]) |
| --- | --- | --- | --- | --- | --- | --- | --- | --- |
| RAQQRVKERYIE | 0.432 ± 0.0045 | 0.74 ± 0.046 | 0.729 ± 0.014 | 0.669 ± 0.022 | 0.7311 ± 0.0059 | 0.517 ± 0.058 | 0.581 ± 0.067 | 0.69 ± 0.0077 |
| RCIRRWPYILKL | 0.273 ± 0.019 | 0.576 ± 0.017 | 0.667 ± 0.0087 | 0.615 ± 0.038 | 0.758 ± 0.059 | 0.214 ± 0.0092 | 0.206 ± 0.042 | 0.285 ± 0.031 |
| RCSLFAKQVVSL | 0.453 ± 0.074 | 0.381 ± 0.032 | 0.442 ± 0.029 | 0.451 ± 0.012 | 0.405 ± 0.0067 | 0.437 ± 0.021 | 0.43 ± 0.0057 | 0.37093 ± 0.00035 |
| RERRISRIPCLS | 0.276 ± 0.057 | 0.594 ± 0.058 | 0.678 ± 0.01 | 0.526 ± 0.018 | 0.6867 ± 0.0014 | 0.174 ± 0.0033 | 0.185 ± 0.035 | 0.362 ± 0.028 |
| RFHFAAPPHRPS | 0.879 ± 0.01 | 0.703 ± 0.024 | 0.744 ± 0.0012 | 0.679 ± 0.027 | 0.748 ± 0.0096 | 0.694 ± 0.062 | 0.668 ± 0.034 | 0.7583 ± 0.0022 |
| RFIYYCVDVFFS | 0.176 ± 0.033 | 0.0337 ± 0.01 | 0.147 ± 0.025 | 0.123 ± 0.049 | 0.215 ± 0.021 | 0.0847 ± 0.031 | 0.1 ± 0.034 | 0.19 ± 0.037 |
| RFLACSIRYLVY | 0.332 ± 0.025 | 0.294 ± 0.012 | 0.425 ± 0.037 | 0.286 ± 0.025 | 0.41 ± 0.008 | 0.227 ± 0.0073 | 0.277 ± 0.018 | 0.4 ± 0.027 |
| RFRFRRTCLYAT | 0.197 ± 0.0089 | 0.5745 ± 0.0034 | 0.588 ± 0.077 | 0.501 ± 0.028 | 0.655 ± 0.013 | 0.0931 ± 0.039 | 0.14 ± 0.0057 | 0.217 ± 0.033 |
| RGAVRVAWYPVL | 0.508 ± 0.095 | 0.699 ± 0.00098 | 0.737 ± 0.01 | 0.64 ± 0.011 | 0.7511 ± 0.0011 | 0.492 ± 0.019 | 0.517 ± 0.0095 | 0.684 ± 0.011 |
| RGDCFLVLCVWR | 0.485 ± 0.0086 | 0.499 ± 0.022 | 0.535 ± 0.015 | 0.366 ± 0.032 | 0.563 ± 0.017 | 0.348 ± 0.0047 | 0.362 ± 0.026 | 0.541 ± 0.0062 |
| RGGPPPCPLLAA | 0.51 ± 0.034 | 0.68 ± 0.036 | 0.698 ± 0.032 | 0.585 ± 0.012 | 0.688 ± 0.0092 | 0.571 ± 0.035 | 0.584 ± 0.011 | 0.664 ± 0.013 |
| RGGWVVVLGCVG | 0.501 ± 0.016 | 0.634 ± 0.034 | 0.6292 ± 0.0044 | 0.482 ± 0.029 | 0.6417 ± 0.0043 | 0.468 ± 0.021 | 0.486 ± 0.018 | 0.635 ± 0.036 |
| RGLWAAIPRKCT | 0.358 ± 0.028 | 0.669 ± 0.04 | 0.74108 ± 0.00026 | 0.645 ± 0.0061 | 0.754 ± 0.016 | 0.179 ± 0.027 | 0.223 ± 0.023 | 0.548 ± 0.02 |
| RGPSQVIVAFFV | 0.49 ± 0.016 | 0.663 ± 0.027 | 0.6843 ± 0.0038 | 0.522 ± 0.026 | 0.688 ± 0.0083 | 0.3186 ± 0.0031 | 0.371 ± 0.026 | 0.5674 ± 0.0018 |
| RGSLLRWFLAAQ | 0.443 ± 0.014 | 0.628 ± 0.031 | 0.707 ± 0.012 | 0.654 ± 0.034 | 0.706 ± 0.022 | 0.289 ± 0.0095 | 0.31 ± 0.029 | 0.541 ± 0.019 |
| RGSRLVPRLLRP | 0.71 ± 0.024 | 0.686 ± 0.028 | 0.705 ± 0.012 | 0.648 ± 0.015 | 0.713 ± 0.0012 | 0.64 ± 0.02 | 0.656 ± 0.03 | 0.677 ± 0.0057 |
| RGWWWFVVVLCR | 0.329 ± 0.028 | 0.165 ± 0.0082 | 0.139 ± 0.0061 | 0.216 ± 0.033 | 0.316 ± 0.0084 | 0.2215 ± 0.00025 | 0.197 ± 0.012 | 0.2951 ± 0.0014 |
| RHIRGLNLIKLI | 0.161 ± 0.044 | 0.316 ± 0.092 | 0.672 ± 0.034 | 0.652 ± 0.025 | 0.69 ± 0.034 | 0.0672 ± 0.022 | 0.0745 ± 0.011 | 0.0777 ± 0.0067 |
| RHQTDIVTATQK | 0.562 ± 0.097 | 0.694 ± 0.05 | 0.724 ± 0.026 | 0.636 ± 0.036 | 0.717 ± 0.012 | 0.642 ± 0.062 | 0.685 ± 0.014 | 0.70375 ± 0.00022 |
| RHVFLRIKVLNL | 0.489 ± 0.085 | 0.564 ± 0.11 | 0.644 ± 0.051 | 0.52 ± 0.016 | 0.5596 ± 0.0049 | 0.344 ± 0.0053 | 0.397 ± 0.015 | 0.5197 ± 0.0025 |

| Sequence | protein stability index (Saccharomyces cerevisiae [1]) | protein stability index (Saccharomyces cerevisiae [2]; [3]) | protein stability index (Saccharomyces cerevisiae [2]; [4]) | protein stability index (Saccharomyces cerevisiae [2]; [5]) | protein stability index (Saccharomyces cerevisiae [2]; [6]) | protein stability index (Saccharomyces cerevisiae [2]; [7]) | protein stability index (Saccharomyces cerevisiae [2]; [8]) | protein stability index (Saccharomyces cerevisiae [2]; [9]) |
| --- | --- | --- | --- | --- | --- | --- | --- | --- |
| RIFRCYSFYVVV | 0.336 ± 0.021 | 0.496 ± 0.047 | 0.587 ± 0.029 | 0.393 ± 0.026 | 0.568 ± 0.024 | 0.272 ± 0.029 | 0.267 ± 0.031 | 0.4233 ± 0.0012 |
| RILFSPSTFYLF | 0.397 ± 0.026 | 0.665 ± 0.048 | 0.761 ± 0.037 | 0.705 ± 0.03 | 0.7501 ± 0.0036 | 0.214 ± 0.024 | 0.265 ± 0.031 | 0.487 ± 0.024 |
| RIRRVMHLYTNN | 0.121 ± 0.0048 | 0.475 ± 0.027 | 0.705 ± 0.071 | 0.641 ± 0.027 | 0.708 ± 0.024 | 0.0717 ± 0.0049 | 0.0844 ± 0.012 | 0.109 ± 0.044 |
| RISYKTKINELI | 0.434 ± 0.043 | 0.653 ± 0.038 | 0.735 ± 0.034 | 0.607 ± 0.034 | 0.737 ± 0.01 | 0.262 ± 0.0063 | 0.287 ± 0.052 | 0.5426 ± 0.003 |
| RIVLRPPFNSVA | 0.367 ± 0.077 | 0.619 ± 0.015 | 0.727 ± 0.017 | 0.656 ± 0.035 | 0.7428 ± 0.0017 | 0.176 ± 0.0064 | 0.217 ± 0.018 | 0.48 ± 0.0059 |
| RKKKRNKKKMIM | 0.522 ± 0.044 | 0.716 ± 0.058 | 0.734 ± 0.019 | 0.629 ± 0.019 | 0.706 ± 0.022 | 0.362 ± 0.024 | 0.342 ± 0.09 | 0.621 ± 0.0081 |
| RLDAPGLSRTEN | 0.513 ± 0.12 | 0.66 ± 0.04 | 0.68 ± 0.011 | 0.647 ± 0.044 | 0.683 ± 0.0075 | 0.66 ± 0.026 | 0.646 ± 0.078 | 0.671 ± 0.017 |
| RLFYRLSFVYFL | 0.2655 ± 0.0014 | 0.398 ± 0.025 | 0.4469 ± 0.0038 | 0.378 ± 0.029 | 0.514 ± 0.017 | 0.169 ± 0.0068 | 0.175 ± 0.016 | 0.243 ± 0.015 |
| RLLLLLTCIIYI | 0.256 ± 0.015 | 0.173 ± 0.006 | 0.219 ± 0.023 | 0.194 ± 0.016 | 0.276 ± 0.052 | 0.183 ± 0.026 | 0.16 ± 0.046 | 0.267 ± 0.032 |
| RLPVMFWFVCSF | 0.506 ± 0.042 | 0.561 ± 0.053 | 0.641 ± 0.024 | 0.477 ± 0.026 | 0.6288 ± 0.0029 | 0.47 ± 0.038 | 0.466 ± 0.026 | 0.638 ± 0.055 |
| RLVRILSTILLN | 0.177 ± 0.049 | 0.487 ± 0.079 | 0.638 ± 0.038 | 0.576 ± 0.028 | 0.703 ± 0.052 | 0.0769 ± 0.029 | 0.1 ± 0.014 | 0.0569 ± 0.034 |
| RLVVSRNFYRLC | 0.304 ± 0.1 | 0.622 ± 0.054 | 0.723 ± 0.017 | 0.6318 ± 0.006 | 0.7235 ± 0.0012 | 0.125 ± 0.0022 | 0.135 ± 0.014 | 0.342 ± 0.0091 |
| RLWLPLSLVLWV | 0.427 ± 0.029 | 0.376 ± 0.05 | 0.3824 ± 0.0031 | 0.37 ± 0.072 | 0.505 ± 0.012 | 0.414 ± 0.03 | 0.341 ± 0.05 | 0.421 ± 0.041 |
| RMCEILGIRHLI | 0.245 ± 0.061 | 0.611 ± 0.031 | 0.742 ± 0.016 | 0.645 ± 0.025 | 0.748 ± 0.017 | 0.137 ± 0.013 | 0.158 ± 0.01 | 0.303 ± 0.016 |
| RMCPWVSVRVGV | 0.485 ± 0.0071 | 0.558 ± 0.028 | 0.5891 ± 0.0027 | 0.382 ± 0.036 | 0.5922 ± 0.0023 | 0.3537 ± 0.0019 | 0.391 ± 0.013 | 0.5825 ± 0.00065 |
| RPRRARLPNFLA | 0.0979 ± 0.012 | 0.37 ± 0.0066 | 0.64023 ± 0.0001 | 0.653 ± 0.022 | 0.705 ± 0.018 | 0.0688 ± 0.021 | 0.073 ± 0.0067 | 0.0894 ± 0.0014 |
| RPRVAGLMTLVS | 0.5 ± 0.0055 | 0.698 ± 0.013 | 0.686 ± 0.052 | 0.543 ± 0.018 | 0.707 ± 0.025 | 0.459 ± 0.03 | 0.459 ± 0.032 | 0.672 ± 0.0094 |
| RRSRLYKKAGLM | 0.301 ± 0.064 | 0.609 ± 0.011 | 0.7374 ± 0.0017 | 0.643 ± 0.02 | 0.745 ± 0.011 | 0.179 ± 0.001 | 0.181 ± 0.037 | 0.296 ± 0.0014 |
| RSIVFRVSRRLN | 0.277 ± 0.034 | 0.65 ± 0.074 | 0.729 ± 0.019 | 0.671 ± 0.023 | 0.726 ± 0.015 | 0.13 ± 0.0084 | 0.161 ± 0.025 | 0.343 ± 0.044 |
